Results published in the RNAGym collection of RNA variant scans (doi:10.1073/pnas.2313332121).
Fewer inactive variants are shown than the library holds.

B1: TPR 5TU (parent)
chain: GGAUCUUCUCGAUCUAACAAAAAAGACAAAUCUGCCACAAAGCUUGAGAGCAUCUUCGGAUGCAGAGGCGGCAGCCUUCGGUGGCGCGAUAGCGCCAACGUUCUCAACUAUGACACGCAAAACGCGUGCUCCGUUGAAUGGAGUUUAUCAUG

Variants of: B1
Test: polymerase ribozyme fitness, log enrichment relative to wild type (log ratio); higher = more active; in vitro selection for triplet polymerase activity
Summary of the method: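 One round of in vitro selection, in triplicate, was applied to PCR-built, transcribed mutant libraries of each subunit of a heterodimeric triplet polymerase ribozyme. The steps were annealing with a biotinylated primer, partner subunit and triplets, incubation frozen at −7 °C, gel excision of extended constructs, streptavidin-bead capture and RT-PCR. Fitness is the logarithm, base 2, of genotype enrichment over wild-type enrichment from inverse-variance-weighted replicate averages of Illumina-sequenced inputs and outputs, keeping genotypes with ≥10 input reads and ≥1 read per output.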

Row | Variant | polymerase ribozyme fitness (log ratio)
1 | GGAUCUUCUCGAUCUAACAAAAAAGACAAAUCUGCCACAAAGCUUGAGCGCAUCUUCGGAUGCAGAGGCGGCAGGCUUCGGUGGCGAGAUAGCGCCAACGUUCUCAACUAUGACACGCAAAACGCGUGCUCCGUUGAAUGGAGUUUAUCAUG [A49C C75G C87A] | ≤ -4.2
2 | GGAUCUUCUCGAUCUAACAAAAAAGACAAAUCUGCCACAAAGCUUGAGCGCAUCUUCGGAUGCAGAGGCGGCGGCCUUCGGUGGCGCGAUAGUGCCAACGUUCUCAACUAUGACACGCAAAACGCGAGCUCCGUUGAAUGGAGUUUAUCAUG [A49C A73G C93U U127A] | ≤ -4.2
3 | GGAUCUUCUCGAUCUAACAAAAAAGACAAAUCUGCCACAAAGCUUGAUAGCAUCUUCGGAUGCAGAGGCGGCAGCCUUCGGUGGCGCGAUAGCGCCAACGUUCUCAACUAUGACACGCAAAACGCGUGCUCCGUUGAAUGGAGUUGAUCAUG [G48U U146G] | -1.42
4 | GGAUCUUCUCGAUCUAACAAAAAAGACAAAUCUGCCACAAAGCUUGAGCGCAUCUUCGGAUGCUGAGGCGGCAGUUUUCGGUGGCGCGAUAGCGCCAACGUUCUCAACUAUGACACGCAAAACGCGUGCUCCGUGGAAUGGAGUUUAUCAUG [A49C A64U C75U C76U U135G] | ≤ -4.2
5 | GGAUCUUCUCGAUCUAACAAAAAAGACAAAUCUGCCACAAAGCUUGAGCGCAUCUUCGGAUGCAGAGGCGGCAGCCUUCGGUGGCGCGAUAGCGCCAACGUUCUCAACUAUGACAAGCAAAACGCGUGCUCCGUUGAAUGGACUUUAUCAUG [A49C C116A G143C] | ≤ -4.2
6 | GGAUCUUCUCGAUCUAACAAAAAAGACAAAUCUGCCACAAAGCUUGAGCGCAUCUUCGGAUGCAGAGGUGGCAGCCUUCGGUGACGCGAUAGUGCUAACGUUCUCAACUAUGACACGCAAAACGCGUGGUCCGUUGAAUGGAGUUUACCAUG [A49C C69U G84A C93U C96U C129G U148C] | ≤ -4.2
7 | GGAUCUUCUCGAUCUAACAAAAAAGACAAAUCUGCCACAAAGCUUGAGCGCAUCUUCAGAUGCAAAGGCGGCAGCCUUCGGUGGCGCGAUAGCGCCAACGUUCUCAACUAUGACACGCAAAACGCGUGCUCCGUUGAAAGGAGUUUAUCAUG [A49C G58A G65A U139A] | ≤ -4.2
8 | GGAUCUUCUCGAUCUAACAAAAAAGACAAAUCUGCCACAAAGCUUGAGCGCAUCUUCGGAUGCAGAGGCGGCAGCCUUCGAUGGCGCGAUAUUGCCAACGUUCUCAACUAUGACACGCAAAACGCGUGCUCCGUUGAAUUGAGUUUAUCAUC [A49C G81A G92U C93U G140U G152C] | ≤ -4.2
9 | GGAUCUUCUCGAUCUAACAAAAAAGACAAAUCUGCCACAAAGCUUGAGCGCAUCUUCGGAUGCAGAGGCGGCAGCCUUCGGUGGCGCGAUAGCGCCAACGUUCUCAGCUAUGACACGCAAAACGCGUGCUCCGUUGAAUGGAGUUUAUCACG [A49C A107G U151C] | ≤ -4.2
10 | GGAUCUUCUCGAUCUAACAAAAAAGACAAAUCUGCCACAAAGCUUGAGCGCAUCUUCGGAUGCAGAGGCGGCAGCCUUCGGUGGCGCGAUAGCGCCAACGUUCUCAACUAUGACACGCAAAACUCGUGCUCCGUUGAAUGGAGUUUAUCAUG [A49C G124U] | ≤ -4.2
11 | GGAUCUUCUCGAUCUAACAAAAAAGACAAAUCUGCCACAAAGCUUGAGCGCUUCUUCGGGUGCAGAGGCGGCAGCCUUCGGUGGCGCGAUAGCACCGACGUUCUCAACUAUGACACGCAAAACGCGUGCUCCGUUGAAUGGAGUUUAUCAUG [A49C A52U A60G G94A A97G] | -3.63
12 | GGAUCUUCUCGAUCUAACAAAAAAGACAAAUCUGCCACAAAGCUUGAGCGCAUCUUCGGAUGCAUAGGCGGCAGCCUUCGGUGUCGCGAUAGCGCUAACGUUCUCAACUAUGACACGCAAUACGGGUGCUCCGUUGAAUGGAGUUUAUCAUG [A49C G65U G84U C96U A121U C125G] | ≤ -4.2
13 | GGAUCUUCUCGAUCUAACAAAAAAGACAAAUCUGCCACAAAGCUUGAGCGCAUCUUCGGAUACAGAGGCGGCAGCCUUCGGUGGCGAGAUAGCGCCAACGUUCUCAACUAUGACACGCAAAACGCGUGCUCCGUUGAAUCGAGUUUAUCAUG [A49C G62A C87A G140C] | ≤ -4.2
14 | GGAUCUUCUCGAUCUAACAAAAAAGACAAAUCUGCCACAAAGCUUGAGCGCAUAUUCGGAUGCAGAGGCGGCAGCCUCCGGUGGUGCGAUAGCGCCAACGUUCUCAACUAUGACACGCAAAACGCGUGCUCCGUUGAAUGGAGUUUAUCAUG [A49C C54A U78C C85U] | -3.91
15 | GGAUCUUCUCGAUCUAACAAAAAAGACAAAUCUGCCACAAAGCUUGAUAGCAUCUACGGAUGCAGAAGCGGCCGCCUUCGGUGGCUCGAUAGCGCCAACGUUCUCAGCUAUGACACGCAAAACGCGUGCUCCGUUGAAUGGAGUUUAUCAUG [G48U U56A G67A A73C G86U A107G] | ≤ -4.2
16 | GGAUCUUCUCGAUCUAACAAAAAAGACAAAUCUGCCACAAAGCUUGAUAGCAUCUUCGGAUGCAGAGGCGGCAGCCCUGGGUGGCGCGAUAGCGCCAACGUUCUCAACUAUGACACGCAAAACGCGUGCUCCGUUGAAUGGAUUUUAUCAUG [G48U U77C C79G G143U] | ≤ -4.2
17 | GGAUCUUCUCGAUCUAACAAAAAAGACAAAUCUGCCACAAAGCUUGAGCGCAUCUUCGGAUGCAGGGGCGGCAGCCUUCGGUGGCGCGAUAGCGCCAACGUUCUCAACUAUGACACGCAAAACGCGUGCUCCGUUGAAUGGAGUUUAUCAUG [A49C A66G] | ≤ -4.2
18 | GGAUCUUCUCGAUCUAACAAAAAAGACAAAUCUGCCACAAAGCUUGAGCGCAUCUUCGGAUGCAGUGGCGGCAGCCUUCGGUGGCGCGAUAGCGCCAACGUUCUCAACUAUGACACGCAAAACGCGUGCUCCGUUGAAUGGAGUUUAUCAUG [A49C A66U] | ≤ -4.2
19 | GGAUCUUCUCGAUCUAACAAAAAAGACAAAUCUGCCACAAAGCUUGAGCGCAUCUUCGGGUGCAGAUGCGGCAGCCUUCGGUGGUGCGAUAGGGCCGACGUUCUCAACUAUGACACGCAAAACGCGUGCUCCGUUGAAUGGAGUUUAUCAUG [A49C A60G G67U C85U C93G A97G] | ≤ -4.2
